Measured values taken from patent publication US20210138049A1.
Several values for one entry are separate records, joined by “and”; a condition that tells them apart may be missing. Equal values may be shown once.

Key:
[1] = target: α-Synuclein 91-140 peptide (human); assay: peptide ELISA, serum, 0 w
[2] = target: β-Syn (103-134) peptide; assay: peptide ELISA, serum, 0 w

“preimmune guinea pig serum / antibodies purified from preimmune serum of naïve guinea pigs (antibody)” was tested, and the ELISA Log10 Titer [1] was 0.1 Log10 titer and 0.2 Log10 titer and 0.3 Log10 titer and the ELISA Log10 Titer [2] was 0.1 Log10 titer.
